Blank lines part the entries; values can stand above or below the molecule they belong to.
Tests used:
[1] = target: T1, human SIRPA expressed on cells (human, UniProt P78324 31-504); assay: flow cytometry on CHO-HuSIRPα cells
Protocol: Initial characterization of SIRPA antibodies involved screening their ability to bind the human receptor ectopically expressed on the rodent Chinese hamster ovary cell line, henceforth referred to as CHO-huSIRPA, followed by screening on primary human macrophages. Cells were harvested, plated at 10⁵ cells/well in a 96-well plate, washed, and incubated in 100 μl FACS buffer containing Fc blocking reagent and […] of indicated monoclonal antibody. Cells were then washed twice and incubated in FACS buffer containing APC-conjugated secondary antibody diluted 1:200 for 30 minutes on ice. Cells were washed twice in cold FACS buffer and acquired on a BD FACS Canto. Data analysis and calculation of mean fluorescence intensity (MFI) values or % positive cells was performed with FlowJo (TreeStar) software version 10.0.7.

[2] = target: T2, mouse SIRPA expressed on CHO cells (mouse, UniProt P97797 32-513); assay: flow cytometry on CHO-MuSIRPα cells
T2 construct: also called CHO-mSIRPA; CHO-MuSIRPα
T2 sequence: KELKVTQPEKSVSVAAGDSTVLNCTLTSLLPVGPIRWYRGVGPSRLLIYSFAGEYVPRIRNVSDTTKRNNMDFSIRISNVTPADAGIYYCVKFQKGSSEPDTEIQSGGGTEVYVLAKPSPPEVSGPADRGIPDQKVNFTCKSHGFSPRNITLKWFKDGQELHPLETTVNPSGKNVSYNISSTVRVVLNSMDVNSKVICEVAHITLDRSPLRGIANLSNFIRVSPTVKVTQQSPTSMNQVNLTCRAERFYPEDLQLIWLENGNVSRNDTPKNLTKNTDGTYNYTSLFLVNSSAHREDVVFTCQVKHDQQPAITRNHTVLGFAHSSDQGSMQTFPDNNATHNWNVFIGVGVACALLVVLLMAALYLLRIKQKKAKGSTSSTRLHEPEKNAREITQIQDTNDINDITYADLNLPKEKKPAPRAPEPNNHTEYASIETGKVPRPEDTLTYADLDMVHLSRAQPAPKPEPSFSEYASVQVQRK

[3] = target: T1, human SIRPA expressed on cells; assay: flow cytometry titration on CHO-huSIRPA cells at 4 C
Protocol: Serial dilutions of monoclonal antibodies were added to 10⁵ CHO-huSIRPA cells and allowed to achieve binding equilibrium at 4° C. After addition of fluorescently labeled secondary antibody and brief washing steps, MFI values as a function of titrated antibody concentration was recorded via FACS analysis (FIG. 3D). Curves were fit using nonlinear regression analysis with Graphpad Prism 6 software.

[4] = target: T3, recombinant soluble human SIRPA antigen, His-tagged (human, UniProt P78324 31-373); assay: SPR, Biacore T200, antibody captured by anti-mouse IgG on CM5, soluble human SIRPA in solution, 1:1 fit
T3 construct: also called His-tagged soluble HuSIRPA protein; monomeric human SIRPA antigen; not shown: His tag
Protocol: Binding studies were performed using a Biacore T200 (GE). An anti-mouse IgG capture antibody was amine coupled to a CM5 sensor chip using standard NHS/EDC activation. SIRPA antibodies were diluted to 50 nM in 1×HBS-EP+ running buffer and captured onto sensor chip surface. Serial dilutions of recombinant soluble human SIRPA antigen were injected over captured SIRPA antibodies to record sensorgram traces. Data were processed by subtracting RU values from the reference cell as well as the buffer injections.

[5] = target: T1, human SIRPA expressed on cells; assay: cell-based or functional assay
[6] = target: T2, mouse SIRPA expressed on CHO cells; assay: flow cytometry on CHO-mSIRPA cells
[7] = target: T4, human SIRPA-DAP12 chimera expressed on BWZ/NFAT-luciferase reporter cells (human, UniProt O43914 62-113, limits assumed); assay: flow cytometry on BWZ-Human SIRPA cells, titrated antibody detected with anti-mouse IgG APC (Relative MFI)
T4 construct: domain: intracellular ITAM motif; The intracellular ITIM motif of SIRPA was substituted with the intracellular ITAM motif of DAP12; also called BWZ-huSIRPA; BWZ-HuSIRPA

T3 sequence (P78324 31-373 limits assumed): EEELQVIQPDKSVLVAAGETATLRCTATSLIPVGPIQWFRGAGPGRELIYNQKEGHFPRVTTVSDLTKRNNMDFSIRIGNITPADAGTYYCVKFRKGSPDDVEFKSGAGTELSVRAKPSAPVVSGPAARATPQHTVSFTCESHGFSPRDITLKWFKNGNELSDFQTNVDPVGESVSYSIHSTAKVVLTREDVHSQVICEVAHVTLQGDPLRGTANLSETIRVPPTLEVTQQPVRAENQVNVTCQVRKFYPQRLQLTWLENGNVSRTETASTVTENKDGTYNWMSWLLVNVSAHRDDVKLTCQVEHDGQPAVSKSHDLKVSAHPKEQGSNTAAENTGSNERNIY
T1 sequence (P78324 31-504): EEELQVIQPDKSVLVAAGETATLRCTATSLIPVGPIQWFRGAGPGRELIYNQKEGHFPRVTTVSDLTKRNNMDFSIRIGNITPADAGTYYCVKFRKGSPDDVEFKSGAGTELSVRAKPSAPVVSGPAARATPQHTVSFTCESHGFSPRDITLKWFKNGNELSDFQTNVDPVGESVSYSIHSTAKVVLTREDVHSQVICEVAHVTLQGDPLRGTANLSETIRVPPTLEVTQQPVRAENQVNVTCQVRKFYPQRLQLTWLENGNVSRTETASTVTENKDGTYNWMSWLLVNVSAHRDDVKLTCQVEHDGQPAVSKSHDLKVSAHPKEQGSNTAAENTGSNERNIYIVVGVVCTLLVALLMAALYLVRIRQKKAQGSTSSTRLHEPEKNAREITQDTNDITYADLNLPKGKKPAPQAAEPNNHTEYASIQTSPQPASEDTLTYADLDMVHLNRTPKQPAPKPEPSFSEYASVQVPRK

MFI, fold over background [1]: 137 fold over background | EC50 [3]: 2.6 nM | Kd [4]: 10 nM | koff [4]: 0.00057 s⁻¹ | kon [4]: 55000 M⁻¹ s⁻¹ | phagocytic activity of treated macrophages (FIG. 8C) [5]: 2 fold | phagocytosis of labeled Raji cells: CD14+/pHrodo+ macrophages over isotype-treated macrophages [5]: 2.5 fold | MFI, fold over background [2]: 0.998 fold over background | EC50 (read off the curve) [7]: ~1 nM
B1: 3F9 (antibody, IgG1, V domains shown)
VH: EVKLVESGGGLVKPGGSLKLSCAASGFTFSSYAMSWVRQTPEKRLEWVATISDYGGSYTYYPDSVKGRFTISRDNAKYTLYLQMSSLRSEDTALYYCARPPYDDYYGGFAYWGQGTLVTVSA
VL: DIVLTQSPASLAVSLGQRATISCRASKSVSSSGYSYMHWYQQKPGQPPKLLIYLASNLESGVPARFSGSGSGTDFTLNIHPVEEEDAATYYCQHNRELPCTFGGGTKLEIK
notes: also called anti-SIRPA antibody 3F9; glycosylated 3F9
binding result [6]: no binding (tested: 1.0 pg/ml (so in the source))

EC50 (read off the curve) [7]: ~1 nM
B2: deglycosylated 3F9 (antibody, IgG1, V domains shown)
VH: B1 VH
VL: B1 VL
modifications: Fc-linked glycan removed with EndoS (on the heavy chain constant region, which is not given)
notes: also called deglycosylated 3F9 variant; deglycosylated form of 3F9

Continued, molecule first:

Molecule: mouse IgG1 isotype control (antibody)
MFI, fold over background (fold over background) [1]: 1 | MFI, fold over background (fold over background) [2]: 1

B3: 9C2 (antibody, IgG1, V domains shown)
VH: EFQLQQSGAELVKPGASVKISCKASGYSLTGYNMNWVKQSRGKSLEWIGNINPHYGSSTYNQNFKDKATLTVDKSSSAAYMQFNSLTSEDSAVYYCAREGYDGVFDYWGQGTTLTVSS
VL: QIVLSQSPAILSASPGEKVTMTCRASSSVSYMHWYQQKPGSSPKPWIYVTSNLASGVPTRFSGSGSGTSYSLTISRVEAEDAATYYCQQWSSNPRTFGGGTKLEIK
notes: also called anti-SIRPA antibody 9C2; 9C2-DyLight 650
MFI, fold over background [1]: 128 fold over background | EC50 [3]: 1.6 nM | Kd [4]: 80 nM | koff [4]: 0.0045 s⁻¹ | kon [4]: 54000 M⁻¹ s⁻¹ | phagocytosis of labeled Raji cells: CD14+/pHrodo+ macrophages over isotype-treated macrophages [5]: 1.5 fold | MFI, fold over background [2]: 0.981 fold over background | binding result [6]: no binding (tested: 1.0 pg/ml (so in the source))

Source: patent US20250144209A1 (Alector, published 2025)
